# From patent US20110160439A1 (H LUNDBECK A S, published 2011)
# Where no end group is shown, it is not given here.
# B1: Mature BDNF (ligand)
# chain: HSDPARRGELSVCDSISEWVTAADKKTAVDMSGGTVTVLEKVPVSKGQLKQYFYETKCNPMGYTKEGCRGIDKRHWNSQCRTTQSYVRALTMDSKKRIGWRFIRIDTSCVCTLTIKRGR
# B2: Propeptide of Nerve Growth Factor (NGFpro), E. coli-expressed, His6 tag removed by TEV (ligand)
# chain: EPHSESNVPAGHTIPQVHWTKLQHSLDTALRRARSAPAAAIAARVAGQTRNITVDPRLFKKRRLRSPRVLFSTQPPREAADTQDLDFEVGGAAPFNRTHRSKR
# notes: also called pro-domain of Nerve Growth Factor; NGF prodomain
# B3: GST-tagged Sortilin propeptide (other)
# chain: QDRLDAPPPPAAPLPRWSGPIGVSWGLRAAAAGGAFPRGGRWRR
# modifications: also: GST tag, order and linker not given here
# notes: also called GST-Sort-pro; (GST)Sort-pro; not shown: glutathione S-transferase (GST) tag
# What was measured:
# [1] = biological target: T1, Soluble Sortilin (sSortilin), luminal domain of human Sortilin fused C-terminally to His6 (human, UniProt Q99523 78-755); assay: SPR, wt sSortilin immobilised
# T1 construct: Expressed in CHO-K1 cells; The propeptide is removed in the mature receptor; also called wt sSortilin; wtSortilin
# T1 sequence: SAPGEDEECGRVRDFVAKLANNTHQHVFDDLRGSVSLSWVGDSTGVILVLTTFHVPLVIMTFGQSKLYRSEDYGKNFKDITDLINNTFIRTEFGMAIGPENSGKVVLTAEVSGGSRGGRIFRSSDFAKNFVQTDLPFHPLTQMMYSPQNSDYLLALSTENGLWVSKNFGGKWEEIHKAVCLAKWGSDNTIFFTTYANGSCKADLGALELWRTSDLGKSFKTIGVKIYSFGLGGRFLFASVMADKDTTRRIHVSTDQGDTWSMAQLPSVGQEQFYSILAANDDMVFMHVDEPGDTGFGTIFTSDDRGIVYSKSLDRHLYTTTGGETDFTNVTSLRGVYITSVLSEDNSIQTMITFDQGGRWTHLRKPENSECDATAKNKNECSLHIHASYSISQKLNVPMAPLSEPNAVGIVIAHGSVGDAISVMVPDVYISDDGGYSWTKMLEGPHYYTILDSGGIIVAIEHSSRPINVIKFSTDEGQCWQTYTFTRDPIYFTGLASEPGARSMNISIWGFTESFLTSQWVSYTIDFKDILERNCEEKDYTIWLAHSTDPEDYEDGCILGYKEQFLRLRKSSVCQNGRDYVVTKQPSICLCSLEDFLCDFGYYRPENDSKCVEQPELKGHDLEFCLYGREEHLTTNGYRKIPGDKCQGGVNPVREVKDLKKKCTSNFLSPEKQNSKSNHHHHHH
# Protocol: (§1) The receptors were immobilized at similar concentrations (0.06 pM/mm²) and binding was analyzed by SPR.
# (§2) Surface plasmon resonance (SPR) measurements were performed on a BIAcore 2000 instrument (Biacore Sweden) equipped with CM5 sensor chips maintained at 20° C. A continuous flow of HBS buffer (10 mM HEPES pH 7.4, 3.4 mM EDTA, 150 mM NaCl, 0.005% surfactant P20) passing over the sensor surface was maintained at 5 μl/min. The carboxylated dextran matrix of the sensor chip flow cells 1-3 was activated by the injection of a solution containing 0.2 M N-ethyl-N-(3 dimethylamino-propyl)carbodiimide and 0.05MN-hydroxysuccimide in water. A sortilin solution (320 μl, 5 μg/ml in 10 mM sodium acetate pH 4.0) was then injected over flow cells 1 and 2 at a flow rate of 15 μl/min. Remaining binding sites in all three flow cells were blocked by injection (5 μl/min) of 70 μl of 1 M ethanolamine pH 8.5. […] Screening of the samples was performed by injecting aliquots of 50 μl, at concentrations of 0.1-8 μM, through all flow cells with a flow rate of 5 μl/min. Unless otherwise stated, the samples were dissolved in 10 mM HEPES pH 7.4, 150 mM NaCl, 1.5 mM CaCl2, 1 mM EGTA, 0.005% surfactant P20. Sample buffer was also used as running buffer. […]
# [2] = biological target: T2, sSortilin S316E mutant (human, UniProt Q99523 78-755); assay: SPR, mutant sSortilin immobilised
# T2 sequence: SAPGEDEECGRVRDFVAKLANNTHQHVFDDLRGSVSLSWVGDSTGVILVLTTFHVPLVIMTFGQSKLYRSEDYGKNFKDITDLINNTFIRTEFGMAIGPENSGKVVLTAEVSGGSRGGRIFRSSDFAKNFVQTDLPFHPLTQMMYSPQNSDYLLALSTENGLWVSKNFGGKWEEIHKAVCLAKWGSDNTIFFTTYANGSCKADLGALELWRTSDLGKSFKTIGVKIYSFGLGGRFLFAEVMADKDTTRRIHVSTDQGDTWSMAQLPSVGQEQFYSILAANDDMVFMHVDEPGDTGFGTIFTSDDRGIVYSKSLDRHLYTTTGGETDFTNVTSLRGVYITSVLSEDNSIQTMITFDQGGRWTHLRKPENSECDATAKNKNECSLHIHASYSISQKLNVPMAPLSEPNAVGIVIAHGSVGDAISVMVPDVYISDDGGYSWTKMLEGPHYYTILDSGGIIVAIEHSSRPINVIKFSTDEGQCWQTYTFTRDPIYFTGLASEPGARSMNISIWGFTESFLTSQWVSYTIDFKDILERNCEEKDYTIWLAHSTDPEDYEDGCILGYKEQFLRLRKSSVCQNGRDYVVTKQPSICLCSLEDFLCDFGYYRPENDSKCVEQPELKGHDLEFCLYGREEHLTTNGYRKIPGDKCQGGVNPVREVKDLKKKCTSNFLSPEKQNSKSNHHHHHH
# Protocol: as §1, §2
# [3] = biological target: T1, Soluble Sortilin (sSortilin), luminal …; assay: SPR (BIAcore 3000), sSortilin immobilised on CM5 chip
# Protocol: All measurements were performed on a BIAcore 3000 instrument (Biacore Sweden) maintained at 20° C. A continuous flow of buffer F (10 mM HEPES pH=7.4, 150 mM (NH₄)₂SO₄, 1.5 mM CaCl₂, 1.5 mM EGTA and 0.005% Tween-20) was passed over the CM5 chip sensor surface at 5 μl/min.
Binder,binding result [1],binding result [2],Kd [3] [nM]
B1,binds,binds,–
B2,–,–,~10
B3,–,no binding,–
